Measured values taken from a protein production outcome set (Wang et al. 2014).

Assay: label from the status in PepcDB records

| Sequence | protein production |
| --- | --- |
| MKKIICYLSLSALSLSSFSQTQIANGDFENWSSSEYCSALDSLDNFLTGQAFFYLNAKNETDAIECPALPFTYKTTDKQSGSYALKLGPQYFDDKAYYNFVTLGEAAYFEEEGSVASFGIPFTGRPSKLTGYYKCTAGAVGDELQIKVFGSNFTSEDPLFYGVFTASENQPMYEKFEIDLVYDPTDPNNAVYLSMLITVGNLNDGSIDENTVAFIDNLVFEYDATAATSYTPVSPIHVFASNKTISFSEHVSDIHVVDMVGANNIQEAASTKTLHAETLNSGLYIVTYNYKGNYFSKKVVIE | failed |
| MKKILAICGIELSLIFKKPQNYLIMFAAPLLLTFVFGSMLSGNDDKVRLAIVDQDDTILSQHYIRQLKAHDDMYVFENMSESKASEKLKQKKIAGIIVISRSFQTQLEKGKHPELIFRHGPELSEAPMVKQYAESALATLNIQVTAAKTASQTAGENWKAAYKTVFAKKHEDIVPAVTRQTLSDKKEGAEASDTASRAAGFSILFVMLTMMGAAGTILEARKNGVWSRLLTASVSRAEIGAGYVLSFFVIGWIQFGILLLSTHWLFGINWGNPAAVIVLVSLFLLTVVGIGLMIAANVRTPEQQLAFGNLFVIATCMVSGMYWPIDIEPKFMQSIAEFLPQKWAMSGLTEIIANGARVTDILGICGILLAFAAITFAAGLKALRA | failed |
| MKKILLSLITAAVLLSCQSSRDTSHKYTAITPGVEWLDTNNEKINAHGGGILYHEGIYYWYGECKSDSTYWNPNVPGWECYRTEAGGVNCYSSKDLLNWKYEGLVLQPEISDTQSDLHPSKVLERPKVIYNDKTKKFVMWLHVDSDDYNKAAAGVAVSDSPTGVFTYLGSMHPNGQISRDMTLFKDDDGKAYHIYSSEQNSTLYISLLSDDYLKPSGTFTRNFAGKFREAPAVFKHNGLYYVISSGCTGWSPNEAEYAVATQILGPWTVKGNPCVGKDADKTFYGQSTHVLPIQGKKDAYIAMFDKWNKTDLIHSTYIWLPIQFREDGSMAIQWLDSWSPDTYEF | failed |
| MKKISIEERPDWRATAEREGFNFHTIDGERYWDERGYYLFTEQQITRDLEAPTQALHQMCMDAVARVVDSEELLHQLAIPPAFFDVIQTSWKQGHPHLYARFDFAYDGTGPAKMYEINADTPTSLMEAGAFQLLWLEEQMARGVLPAHASQFNSIAEDLVRAFAEFPGASPFYFAAMSGSVEDRVTTDFLRRMAAHVGIDARHIDIEDIGLNDQGRFVDLDGRWIERLFKLHAWEHIFHEAFGKNVTASGTQFVEPAWKAILSNKGILPLLWQFNEGHPNLLPSRVDQDVTKPVPKGWVRKPYFSREGANIEMRTPGDQVIAVDGPYTDAPYILQAYSPLPKFGDSYTLIGSWVIGDLASGIGIREDDSLITKDTSRFLPHVVID | failed |
| MKKKDRYTGHRYAKPNRSSENDIYSNSDRYARTTGNKKYKKRKKKWSAKKKIIVTLCIILGIILMIAGIVFAYIKATLSQLGRVPLPEAPETLGISSEVAEKYKDLDVTNIALFGVDSREDNDIGRSDALMILSIDRVHNKIKLTSIARDTYVTVDGYGQTKINHAYAYEGPELAIKTINENFDMNIQGFVTVNFSQLAEIIDYLGGINIAVTEEEREVANRLIQELGVQCEPITESGESVHLTGDQAVIFARNRDTGGDSERTGRQRKVLSAMFDQAKAIDVTQYPGLINMVLSQSVTSLSDNDMLGIGTWAVTSGATMEQMSLPNENCNSSGEIIDGVWYYVYDLDLATDLLHDFIYEENSAD | failed |
| MKKKKIWALIWRKSAFRWLLISIFTAIIISACSYNVSKDENGKVKTVKSHFTPCYVVKHKMGETCVPQNPQRIVVLAQTTLANVLALGVKPIGILGADLPTYLQQARDIQVVGEGWEPDVEKILLLKPDLILGKEYHRTQYNTLSQIAPTVLLEWNGTPSWKQHLEDVAQVLNKTDQAKSLMRNYHQRLEEFKIKMGDRLKNLQISYIDILVGYIWCDVKNSFAGTILADAGLQHPSAQEVVTKGGYITFGLETMPMDADGDVIFTSHWMDEDGAKALKRNQNNPLWRKLKAVEQNQVYVVNRHFWRGSNILAAHKVIDDLFNYLVDAKS | failed |
| MKKKQVLAVSSALMIGTTTALTGLPTPVMAQENTEVVQEAVVEENKTEQVPVEQKTENAEVQENITDKEQEETAENAETLKEESTKQETPATPEKEVVTEDKTVEASKNTEVKAGSIAIDETHFPDKVFREQIIAEFDKDGDSVLSVDEISKAQFLNLHGMKTISSLEGIQYLTNLQSLDVSTTSVSDLSPVKNSSLKRLDCRSSKVGSVDLTRYPNLEAFLCDNTSINSLDVSKNEKLNTLFADSTSISNLDVTNNPNLEQLSCSNTGLMELDVTHNPQLVTLDIGDTKVKTLDISKNPNLKQLSCYMTNIAELDVTKNTKLTRLFCHDTTIKKLDLSNNLELEMLRCGEIFEQGIRGLDISKNTKIKKLICDDLYWLNVGENKVLENNHAFVGNGYIDIKGNKIDLKKDVEQGIDISKVKVTANGTLDKDTGIITVDDVKKPVTYEYDCGTYKDGNVVLKVELSLNSQGEDNTAPTISANDVTLNVGDTFDPLANVTATDKEDGTITLTKDNIVANDVDTSKAGTYHVTYKVTDKNGASVKKTITVTVKQNTGDLNSAPIISANDVTLNVGDTFDPLANVTATDKEDGTIILTKDNIIANDVDTSKAGTYHVTFRVVDKNGAITEKTITVTVKEKATNKPVSPQQPQKPSKPTTPTKPSGQKNPVKTGDMTNVGLFTSMFAGSTGVLAVLFGKKRKRNKNN | failed |
| MKKLLLTVIQIALLFIFARLINWVTALLHINIPGSIIGIVILFTLLHFNIIKLEWIELGAAWLLGELLLFFIPSAVGVIEYGDIMSKFGVSILLVVIISTFVVMVSTGTLTQLIAKRKEKKHTCSSEL | failed |
| MKKLLTVTFFTGMLTFFKMISGFIISKIVAIYTGPSGIVLFGQIQSIVSALNGVINSPVGPGIVRFTAENHRKGLEHCYKWWIAGLSWVCIISAIIIPLSITLSSHIAFWTLGSEKYSWVIILTACLLPLTAIGTFISSVINGFQNYKVYVLLGIISAFLSLIIMIALIVFGKINGALLAISVQNALIGGVMIIYASSQPWFNLRWLYGRVHKTYYKDIQRYIVMAITSAIVVPGSLIIVRNIIIHYVGWTEAGYWQAVWKISETYLAIITIALSTYYLPRLSSLSQKDDIIKEISSSLKIIIPLVMFFSMGIYLSRDFIISLLFTKEFLGARMLFQVQLIGDILKIASWLYAYVMISKGMTQLFVISEVLFSLLFISFSLVFIRCYGLIGVTYAYCLNYFIYLVFSVVVVKRAKYD | failed |
| MKKLSFFLIATLSLGACSTATSPTGRHQVFSGVSQQQLNQLGEQAFVEIKAKEKISGNVRQNAYVRCVVDALVTELPLQWRHVKWETVLFLNEEPNAFALPGGKVGVNTGIFRAAKNQEQLAAVLGHEIGHVVSRHHEERITWQLGTQAGLGLLGVLAGTAYGDSAATAVNQIGGLTAQAAFLLPGSRTQEREADIVGQRLMAQAGFDPIQAVYLWKNMLAIAGQRPPQWLSTHPDPTNRIRQLEQQSAVLASVYAQARDAGRVPHCSPAALEHHHHHH | failed |
| MKKLTSLFPLLFLIPLLASCAEEKQVYIVYFGEHKGDKAFHEIEEHHHSYLQSVKESEEDARASLLYSYKHSINGFAAELTPDQASKLEKLAEVVSVFKSHPRKYEAHTTRSWEFVGLEEEETDSDVPRRKNDADDRFRVGRNFLKKAKHGDGIIVGVLDSGVWPESKSFNDKGMGPVPKSWKGICQTGVAFNSSHCNRKIIGARYYVKGYERYYGAFNATANKDFLSPRDPDGHGSHTASTAVGRRVLGASALGGFAKGSASGGAPLARLAIYKACWAKPNAEKVEGNICLEEDMLAAIDDAIADGVHVISISIGTTEPFPFTQDGIAMGALHAVKRNIVVAASAGNSGPKPGTLSNLAPWIITVGASTLDRAFVGGLVLGNGYTIKTDSITAFKMDKFAPLVYASNVVVPGIALNETSQCLPNSLKPELVSGKVVLCLRGAGSRIGKGMEVKRAGGAGMILGNIAANGNEVPSDSHFVPTAGVTPTVVDKILEYIKTDKNPKAFIKPGKTVYKYQAAPSMTGFSSRGPNVVDPNILKPDITAPGLYILAAWSGADSPSKMSVDQRVAGYNIYSGTSMSCPHVAGAIALLKAIHPKWSSAAIRSALMTTAWMTNDKKKPIQDTTGLPANPFALGSGHFRPTKAADPGLVYDASYRAYLLYGCSVNITNIDPTFKCPSKIPPGYNHNYPSIAVPNLKKTVTVKRTVTNVGTGNSTSTYLFSVKPPSGISVKAIPNILSFNRIGQKQRFKIVIKPLKNQVMNATEKGQYQFGWFSWTDKVHVVRSPIAVSLA | failed |
| MKKMKTLTLFLSLLFSFPFVLSAQMVGETLQKVSAALDNRQWDQAVTLFRQAVNTNVEKAEMFYWTGVDKSLEVSSRIGRELAAYYKKSRSYDKAYLFYKELLQKSPNDVNCLVSCAEMEVCRGRESEALETYRKVLSLDADNLAANIFIGNYLYLKAEREKKQLEADYKKISAPTRMQYARYRDGLSRVMSTGYGKAREYLQKVISQFPSTEAQKTLERIKLIEKEVNR | failed |
| MKKPNHSGSGQIRIIGGQWRGRKLPVPDSPGLRPTTDRVRETLFNWLAPVIVDAQCLDCFAGSGALGLEALSRYAAGATLIEMDRAVSQQLIKNLATLKAGNARVVNSNAMSFLAQKGTPHNIVFVDPPFRRGLLEETINLLEDNGWLADEALIYVESEVENGLPTVPANWSLHREKVAGQVAYRLYQREAQGESDAD | not failed |
| MKKRAIVAVIVLLLIGLDQLVKSYIVQQIPLGEVRSWIPNFVSLTYLQNRGAAFSILQDQQLLFAVITLVVVIGAIWYLHKHMEDSFWMVLGLTLIIAGGLGNFIDRVSQGFVVDMFHLDFINFAIFNVADSYLTVGVIILLIAMLKEEINGN | failed |
| MKKRILSAVLVSGVTLGAATTVGAEDLSTKIAKQDSIISNLTTEQKAAQNQVSALQAQVSSLQSEQDKLTARNTELEALSKRFEQEIKALTSQIVARNEKLKNQARSAYKNNETSGYINALLNSKSISDVVNRLVAINRAVSANAKLLEQQKADKVSLEEKQAANQTAINTIAANMAMAEENQNTLRTQQANLEAATANLALQLASATEDKANLVAQKEAAEKAAAEALAQEQAAKVKAQEQAAQQAASVEAAKSAITPAPQATPAAQSSNAIEPAALTAPAAPSARPQTSYDSSNTYPVGQCTWGAKSLAPWAGNNWGNGGQWAYSAQAAGYRTGSTPMVGAIAVWNDGGYGHVAVVVEVQSASSIRVMESNYSGRQYIADHRGWFNPTGVTFIYPHLEHHHHHH | failed |
| MKKSSILILIIICLVGCKKGSNETTITGEIKGLGTDTLYLYGMDELYDRIDTIYVENDKFSYTTSVDTITSAYLLLKNRIEYPVFLDKGNKIKIKGDTINLNFLTISGNIYNEEFTDFQKALEDPADPSEKAGEETVDKRITVEKANTAEEMAEEFILQHHSSYVSLYLLDKYFVQKETPDFSKIKKLVEVMTGVLQDKPYIERLNETITQAEKSEIGKYAPFFSLPNAKGEKITRSSDAFKQKSLLINFWASWNDSISQKQSNSELREIYKKYKKNKYIGMLGISLDVDKQQWKDAIKRDTLDWEQVCDFGGLNSEVAKQYSIYKIPANILLSSDGKILAKNLRGEELKKKIENIVEEATEKEKKNKQKK | failed |
| MKKTLKILAGFVAVVIIIALGIFTSRKLYQNHVDKINHIGKVMDSYKGVKVYYNGKKYAESHGKNYSKDGYYYGYKWQVEYIKRFYYEAKGHSMPNGFGNAKDFFDPKVGQGKLNKDRGLFQYKNGENEKPKADDILVFTDTKYGHVVIVTKVTDDTVEVIQQNMGNKTRDQFKLEYENGKYFVCGKRKPKGWLRKGLEHHHHHH | not failed |
| MKKTLLAIVAVSALSACRQAEEGPPPLPRQISDRSVGHYCSMNLTEHNGPKAQIFLNGKPDQPVWFSTIKQMFGYTKLPEEPKGIRVIYVTDMGNVTDWTNPNADTEWMDAKKAFYVIDSGFIGGMGAEDALPFGNKEQAEKFAKDKGGKVVGFDDMPDTYIFK | failed |
| MKKVFITTGTEHYLRQLMENYIGENVTLLQNFSQSLLYQESTGEKLFQEGKEYRVLQSSGSLKGFGIVVFEYIQLRDEEIPIFLQMYQHASLHFSETPGLQSTKLTKAMNTNQFLIVSFWDSEVFFQEWKKTPLHKEITSIMKKNNTQVGFSHEDIYHYPEFSHDAK | not failed |
